# Laboratory results from patent US20150266925A1 (COMPLIX, published 2015).
# T1: human IL-23 (human, UniProt Q9NPF7 20-189; P29460 23-328)
# T1 sequence (looked up) 1: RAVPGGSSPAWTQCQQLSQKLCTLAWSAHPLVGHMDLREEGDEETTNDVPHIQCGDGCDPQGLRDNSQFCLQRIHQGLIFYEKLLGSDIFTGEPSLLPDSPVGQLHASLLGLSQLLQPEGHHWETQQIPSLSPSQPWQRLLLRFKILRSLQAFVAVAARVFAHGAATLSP
# T1 sequence (looked up) 2: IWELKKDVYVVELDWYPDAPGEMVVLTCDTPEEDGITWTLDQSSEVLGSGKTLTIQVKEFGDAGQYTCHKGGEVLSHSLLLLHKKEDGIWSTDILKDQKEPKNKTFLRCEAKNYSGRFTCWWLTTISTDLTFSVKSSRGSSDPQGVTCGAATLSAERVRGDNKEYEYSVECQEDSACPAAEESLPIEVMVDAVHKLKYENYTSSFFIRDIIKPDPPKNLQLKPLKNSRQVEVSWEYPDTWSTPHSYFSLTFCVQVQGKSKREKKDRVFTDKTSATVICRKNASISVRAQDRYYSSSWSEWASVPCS
# Legend:
# human IL-23 [1] = biological target: T1, human IL-23; assay: cell-based or functional assay
# human IL-23 [2] = biological target: T1, human IL-23; assay: equilibrium ELISA, soluble polypeptide
# human IL-23 [3] = biological target: T1, human IL-23; assay: phage-coated ELISA, clone displayed on phage
# human IL-23 [4] = biological target: T1, human IL-23; assay: kinetic ELISA, soluble polypeptide
# human IL-23 [5] = biological target: T1, human IL-23; assay: cell-based or functional assay; remark: listed apart in the source
# human IL-23 [6] = biological target: T1, human IL-23; assay: ELISA
# human IL-23 [7] = biological target: T1, human IL-23; assay: standard equilibrium ELISA
# human IL-23 [8] = biological target: T1, human IL-23; assay: kinetic ELISA, soluble polypeptide; kinetic ELISA
# human IL-23 [9] = biological target: T1, human IL-23; assay: equilibrium ELISA, soluble polypeptide; equilibrium ELISA
Binder,"functional KD (DB fKD), DB cell assay: Stat3 phosphorylation induced by human IL-23; n data = 2 (human IL-23 [1])",Kd (human IL-23 [2]),Kd (human IL-23 [3]),Kd (human IL-23 [4]),koff (human IL-23 [4]),kon (human IL-23 [4]),"IC50 (read off the curve), inhibition of Stat3 phosphorylation in DB cells by MB23-PEG pre-incubated with 35 pM hIL23 (human IL-23 [5])","functional KD (Spleno fKD), mouse splenocyte assay: IL-17 production induced by human IL-23; n data = 3 (human IL-23 [1])","functional KD (Spleno fKD), mouse splenocyte assay: IL-17 production induced by human IL-23; n data = 1 (human IL-23 [1])","functional KD (Spleno fKD), mouse splenocyte assay: IL-17 production induced by human IL-23; n data = 5 (human IL-23 [1])",Kd (human IL-23 [6]),factor better than the non-matured variant C159 (human IL-23 [7]),Kd (human IL-23 [8]),Kd (human IL-23 [9])
"MB23 (designed binder, 3 for clone 59 (conflict); also called non-PEGylated MB23 Alphabody) MSIEQIQKEITTIQEVIAAIQKYIYTMTGGSGGSGGMSIEEIQKQIAAIQCQIAAIQKQIYAMTGSGGGGSGMSIEEIQKQIAAIQEQIVAIYKQIMAMAS",160 pM,170 pM,70 pM,150 pM,0.00021 s⁻¹,1.5e+06 M⁻¹ s⁻¹,–,–,–,–,–,–,–,–
"MB23-PEG (designed binder, 40 kDa activated maleimide PEG conjugated to the single free thiol group (Cys) of MB23) MSIEQIQKEITTIQEVIAAIQKYIYTMTGGSGGSGGMSIEEIQKQIAAIQCQIAAIQKQIYAMTGSGGGGSGMSIEEIQKQIAAIQEQIVAIYKQIMAMAS",–,–,–,–,–,–,~1 nM,–,–,–,–,–,–,–
MA23 (designed binder) MSIQQIQKEIANIQEVIAAIQKWIYLMTGGSGGSGGMSIEEIQKQIAAIQCQIAAIQKQIYAMTGSGGGGSGMSIEEIQKQIAAIQEQIVAIYKQIMAMPS,–,290 pM,700 pM,700 pM,0.00032 s⁻¹,450000 M⁻¹ s⁻¹,–,–,10000 pM,–,–,–,–,–
MA14 (designed binder) MSIEQIQTEIASIQEVIAGIQKYIYSMTGGSGGSGGMSIEEIQKQIAAIQCQIAAIQKQIYAMTGSGGGGSGMSIEEIQKQIAAIQNQIVAIYKQIMAMGG,–,1800 pM,1500 pM,2500 pM,0.0005 s⁻¹,200000 M⁻¹ s⁻¹,–,–,11000 pM,–,–,–,–,–
MB64 (designed binder) MSIQQIQKEITQIQAVIAGIQKYIYRMTGGSGGSGGGGSGGSGGMSIEEIQKQIAAIQCQIAAIQKQIYAMTGSGGGGSGMSIEEIQKQIAAIQGQIVAIYKQIMAMAT,460 pM,210 pM,90 pM,300 pM,0.00033 s⁻¹,1.1e+06 M⁻¹ s⁻¹,–,–,–,180 pM,–,–,–,–
MA15 (designed binder) MSIQEIQKEIANIQAVIAGIQKYIYTMTGGSGGSGGGGSGGSGGMSIEEIQKQIAAIQCQIAAIQKQIYAMTGSGGGGSGMSIEEIQKQITAIQAQIIAIYKQIMAMPR,290 pM,310 pM,120 pM,90 pM,7.2e-05 s⁻¹,800000 M⁻¹ s⁻¹,–,480 pM,–,–,–,–,–,–
MB74 (designed binder) MSIQQIQKEIATIQEVIAGIQKYIYRMTGGSGGSGGGGSGGSGGMSIEEIQKQIAAIQCQIAAIQKQIYAMTGSGGGGSGMSIEEIQKQIAAIQGQILAIYKQIMAMAI,–,350 pM,470 pM,250 pM,0.00016 s⁻¹,650000 M⁻¹ s⁻¹,–,–,900 pM,–,–,–,–,–
"59m_C2eQ (designed binder, also called design variant; polypeptide 19) single chain Alphabody: MSIQQIQKEIAQIQEVIAGIQKWIYMMTGGSGGSGGGGSGGSGGMSIEEIQKQIAAIQCQIAAIQKQIYAMTGSGGGGSGGSGGGGSGMSIEEIQKQITAIQEQIIAIYKQIMAMTP",–,930 pM,–,3900 pM,0.00043 s⁻¹,110000 M⁻¹ s⁻¹,–,–,1900 pM,–,–,–,–,–
MB9 (designed binder) MSIQQIQKEITNIQEVIAAIQKWIYTMTGGSGGSGGMSIEEIQKQIAAIQCQIAAIQKQIYAMTGSGGGGSGGSGGGGSGMSIEEIQKQIAAIQNQILAIYKQIMAMGS,700 pM,270 pM,200 pM,130 pM,0.00025 s⁻¹,1.9e+06 M⁻¹ s⁻¹,–,–,–,–,–,–,–,–
MB43 (designed binder) MSIEEIQKEIKNIQEVIAAIQKYIYTMTGGSGGSGGMSIEEIQKQIAAIQCQIAAIQKQIYAMTGSGGGGSGGSGGGGSGMSIEEIPKQIAAIQDQIIAIYKQIMAMTR,–,200 pM,180 pM,110 pM,0.00014 s⁻¹,1.3e+06 M⁻¹ s⁻¹,–,–,–,–,–,–,–,–
"Cl59 (designed binder, Non-matured Alphabody from the AC11 library, tested as soluble recombinant protein; also called Clone 59; C159) MSIEEIQKQIASIQEVIAGIQKWIYMMTGGSGGSGGMSIEEIQKQIAAIQKQIAAIQKQIYAMTGGSGGGGSGMSIEEIQKQITAIKEQIIAIYKQIMAMTP",–,–,3000 pM,–,0.0007 s⁻¹,100000 M⁻¹ s⁻¹,–,68800 pM,–,–,–,–,7000 pM,3800 pM

# Continued, values first:
"functional KD (DB fKD), DB cell assay: Stat3 phosphorylation induced by human IL-23; n data = 2 (human IL-23 [1])",Kd (human IL-23 [2]),Kd (human IL-23 [3]),Kd (human IL-23 [4]),koff (human IL-23 [4]),kon (human IL-23 [4]),"IC50 (read off the curve), inhibition of Stat3 phosphorylation in DB cells by MB23-PEG pre-incubated with 35 pM hIL23 (human IL-23 [5])","functional KD (Spleno fKD), mouse splenocyte assay: IL-17 production induced by human IL-23; n data = 3 (human IL-23 [1])","functional KD (Spleno fKD), mouse splenocyte assay: IL-17 production induced by human IL-23; n data = 1 (human IL-23 [1])","functional KD (Spleno fKD), mouse splenocyte assay: IL-17 production induced by human IL-23; n data = 5 (human IL-23 [1])",Kd (human IL-23 [6]),factor better than the non-matured variant C159 (human IL-23 [7]),Kd (human IL-23 [8]),Kd (human IL-23 [9]),Binder
–,200 pM,180 pM,210 pM,0.00022 s⁻¹,1e+06 M⁻¹ s⁻¹,–,1010 pM,–,–,–,–,–,–,MB38 (designed binder) MSIQEIQKEIKQIQEVIAGIQKYIYGMTGGSGGSGGMSIEEIQKQIAAIQCQIAAIQKQIYAMTGSGGGGSGMSIEEIQKQIAAIQNQILAIYKQIMAMPQ
–,1830 pM,160 pM,2300 pM,0.00056 s⁻¹,250000 M⁻¹ s⁻¹,–,–,1700 pM,–,–,–,–,–,MB76 (designed binder) MSIQQIQKEITQIQEVIAAIQKYIYRMTGGSGGSDGMSIEEIQKQIAAIQCQIAAIQKQIYAMTGSGGGGSGMSIEEIQKQIAAIQGQILAIYKQIMAMSL
–,230 pM,–,130 pM,0.00032 s⁻¹,2.5e+06 M⁻¹ s⁻¹,–,–,4100 pM,–,–,–,–,–,"MAcons (designed binder, also called polypeptide 15) single chain Alphabody: MSIQQIQKEIAQIQEVIAAIQKWIYSMTGGSGGSGGGGSGGSGGMSIEEIQKQIAAIQCQIAAIQKQIYAMTGSGGGGSGMSIEEIQKQIAAIQDQIVAIYKQIMAMSG"
240 pM,170 pM,200 pM,250 pM,0.00035 s⁻¹,1.4e+06 M⁻¹ s⁻¹,–,460 pM,–,–,–,–,–,–,MA9 (designed binder) MSIQQIQKEITTIQAVIAAIQKWIYTMTGGSGGSGGGGSGGSGGMSIEEIQKQIAAIQCQIAAIQKQIYAMTGSGGGGSGMSIEEIQKQIAAIQGQIIAIYKQIMAMKD
–,390 pM,–,750 pM,0.00026 s⁻¹,350000 M⁻¹ s⁻¹,–,–,700 pM,–,–,–,–,–,"59m_A3cA_A4cS_C2eQ (designed binder, also called design variant; polypeptide 20) single chain Alphabody: MSIQQIQKEIAQIQEVIAAIQKWIYSMTGGSGGSGGGGSGGSGGMSIEEIQKQIAAIQCQIAAIQKQIYAMTGSGGGGSGGSGGGGSGMSIEEIQKQITAIQEQIIAIYKQIMAMTP"
1730 pM,–,–,–,–,–,–,–,–,21700 pM,300 pM,–,–,–,"Cl59m (designed binder, Rationally designed (in silico matured) variant of Cl59; also called C159m) MSIQQIQKEIAQIQEVIAGIQKWIYMMTGGSGGGSGGGSGGGSGMSIEEIQKQIAAIQKQIAAIQKQIYAMTGGSGGGSGGGSGGGSGMSIEEIQKQITAIKEQIIAIYKQIMAMTP"
–,250 pM,210 pM,140 pM,0.00022 s⁻¹,1.6e+06 M⁻¹ s⁻¹,–,–,–,–,–,–,–,–,MB67 (designed binder) MSIQKIQKEITNIQEVIAAIQKYIYTMTGGSGGSGGMSIEEIQKQIAAIQCQIAAIQKQIYAMTGSGGGGSGGSGGGGSGMSIEEIQKQIAAIQRQILAIYKQIMAMST
450 pM,100 pM,200 pM,30 pM,0.00016 s⁻¹,4.5e+06 M⁻¹ s⁻¹,–,1150 pM,–,–,–,38 fold,–,–,MA5 (designed binder) MSIKQIQKEIAQIQEVIAAIQKWIYRMTGGSGGSGGMSIEEIQKQIAAIQCQIAAIQKQIYAMTGSGGGGSGGSGGGGSGMSIEEIQKQIAAIQDQIVAIYKQIMAMSS
